Assay results taken from patent US20230002480A1.

Experiments:
Assay in all cases: cell-based or functional assay
[1] = biological target: HIV-1 Env of pseudovirus CAP210.2.00.E8 (clade C) (HIV-1)
[2] = biological target: HIV-1 Env of pseudovirus ZM249M.PL1 (clade C) (HIV-1)
[3] = biological target: HIV-1 Env of pseudovirus 6535.3 (clade B) (HIV-1)
[4] = biological target: HIV-1 Env of pseudovirus SC05_8C11_2344 (clade B (T/F)) (HIV-1)
[5] = biological target: HIV-1 Env of pseudovirus Ce1172_H1 (clade C (T/F)) (HIV-1)
[6] = biological target: HIV-1 Env of pseudovirus CNE53 (clade BC) (HIV-1)
[7] = biological target: HIV-1 Env of pseudovirus Ce1176_A3 (clade C (T/F)) (HIV-1)
[8] = biological target: HIV-1 Env of pseudovirus WITO4160.33 (clade B) (HIV-1)
[9] = biological target: HIV-1 Env of pseudovirus Ce1086_B2 (clade C (T/F)) (HIV-1)
[10] = biological target: HIV-1 Env of pseudovirus Ce0682_E4 (clade C (T/F)) (HIV-1)
[11] = biological target: HIV-1 Env of pseudovirus 249M B10 (clade C (T/F)) (HIV-1)
[12] = biological target: HIV-1 Env of pseudovirus ZM197M.PB7 (clade C) (HIV-1)
[13] = biological target: HIV-1 Env of pseudovirus CNE19 (clade BC) (HIV-1)
[14] = biological target: HIV-1 Env of pseudovirus TRO.11 (clade B) (HIV-1)
[15] = biological target: HIV-1 Env pseudovirus 928-28 (HIV-1)
[16] = biological target: HIV-1 Env pseudovirus 620345.c01 (HIV-1)
[17] = biological target: HIV-1 Env pseudovirus 231966.c02 (HIV-1)
[18] = biological target: HIV-1 Env pseudovirus BJOX028000.10.3 (HIV-1)
[19] = biological target: HIV-1 Env pseudovirus 211-9 (HIV-1)
[20] = biological target: HIV-1 Env pseudovirus 3016.v5.c45 (HIV-1)
[21] = biological target: HIV-1 Env pseudovirus 0815.v3.c3 (HIV-1)
[22] = biological target: HIV-1 Env pseudovirus X1193_c1 (HIV-1)
[23] = biological target: HIV-1 Env pseudovirus BJOX025000.01.1 (HIV-1)
[24] = biological target: HIV-1 Env pseudovirus 3365.v2.c2 (HIV-1)
[25] = biological target: HIV-1 Env pseudovirus 3301.v1.c24 (HIV-1)
[26] = biological target: HIV-1 Env pseudovirus C4118.c09 (HIV-1)
[27] = biological target: HIV-1 Env pseudovirus C3347.c11 (HIV-1)
[28] = biological target: HIV-1 Env pseudovirus 89-F1_2_25 (HIV-1)

N49P7.2 (antibody)
IC50 [1]: 3.94 µg/mL | IC80 [1]: 21.7 µg/mL | MPI [1]: 95 | IC50 [2]: 0.073 µg/mL | IC80 [2]: 0.256 µg/mL | MPI [2]: 100 | IC50 [3]: 0.152 µg/mL | IC80 [3]: 0.784 µg/mL | MPI [3]: 100 | IC50 [4]: 0.326 µg/mL | IC80 [4]: 1.14 µg/mL | MPI [4]: 100 | IC50 [5]: > 50 µg/mL | IC80 [5]: > 50 µg/mL | MPI [5]: 6 | IC50 [6]: 0.1 µg/mL | IC80 [6]: 0.277 µg/mL | MPI [6]: 100 | IC50 [7]: 0.332 µg/mL | IC80 [7]: 1.08 µg/mL | MPI [7]: 100 | IC50 [8]: 0.051 µg/mL | IC80 [8]: 0.215 µg/mL | MPI [8]: 100 | IC50 [9]: 0.166 µg/mL | IC80 [9]: 1 µg/mL | MPI [9]: 100 | IC50 [10]: 0.067 µg/mL | IC80 [10]: 0.233 µg/mL | MPI [10]: 100 | IC50 [11]: 0.095 µg/mL | IC80 [11]: 0.349 µg/mL | MPI [11]: 100 | IC50 [12]: 0.223 µg/mL | IC80 [12]: 1.37 µg/mL | MPI [12]: 100 | IC50 [13]: 0.033 µg/mL | IC80 [13]: 0.129 µg/mL | MPI [13]: 100 | IC50 [14]: 0.113 µg/mL | IC80 [14]: 0.306 µg/mL | MPI [14]: 100

N49P9 (antibody)
IC50 [15]: 0.094 µg/mL | IC80 [15]: 0.339 µg/mL | MPI [15]: 100 | IC50 [16]: > 50 µg/mL | IC80 [16]: > 50 µg/mL | MPI [16]: 9 | IC50 [17]: 0.074 µg/mL | IC80 [17]: 0.244 µg/mL | MPI [17]: 100 | IC50 [18]: 0.031 µg/mL | IC80 [18]: 0.134 µg/mL | MPI [18]: 100 | IC50 [19]: 0.136 µg/mL | IC80 [19]: 0.485 µg/mL | MPI [19]: 100 | IC50 [20]: 0.06 µg/mL | IC80 [20]: 0.209 µg/mL | MPI [20]: 100 | IC50 [21]: 0.02 µg/mL | IC80 [21]: 0.057 µg/mL | MPI [21]: 100 | IC50 [22]: 0.025 µg/mL | IC80 [22]: 0.081 µg/mL | MPI [22]: 100 | IC50 [23]: 0.055 µg/mL | IC80 [23]: 0.252 µg/mL | MPI [23]: 100 | IC50 [24]: 0.059 µg/mL | IC80 [24]: 0.198 µg/mL | MPI [24]: 100 | IC50 [25]: 0.072 µg/mL | MPI [25]: 100 | IC50 [26]: 0.072 µg/mL | IC80 [26]: 0.2 µg/mL | MPI [26]: 100 | IC50 [27]: 0.023 µg/mL | IC80 [27]: 0.065 µg/mL | MPI [27]: 100 | IC50 [28]: > 50 µg/mL | IC80 [28]: > 50 µg/mL | MPI [28]: 23

N49P11 (antibody)
IC50 [1]: 5.12 µg/mL | IC80 [1]: 19.4 µg/mL | MPI [1]: 100 | IC50 [2]: 3.64 µg/mL | IC80 [2]: 17.4 µg/mL | MPI [2]: 100 | IC50 [3]: 8.22 µg/mL | IC80 [3]: 17.2 µg/mL | MPI [3]: 100 | IC50 [4]: 5.42 µg/mL | IC80 [4]: 20.5 µg/mL | MPI [4]: 100 | IC50 [5]: 3.55 µg/mL | IC80 [5]: 19.2 µg/mL | MPI [5]: 100 | IC50 [6]: 0.43 µg/mL | IC80 [6]: 2.88 µg/mL | MPI [6]: 100 | IC50 [7]: 0.946 µg/mL | IC80 [7]: 6.05 µg/mL | MPI [7]: 100 | IC50 [8]: 4.86 µg/mL | IC80 [8]: 13.2 µg/mL | MPI [8]: 100 | IC50 [9]: 2.19 µg/mL | IC80 [9]: 11.7 µg/mL | MPI [9]: 100 | IC50 [10]: 0.091 µg/mL | IC80 [10]: 0.387 µg/mL | MPI [10]: 100 | IC50 [11]: 3.54 µg/mL | IC80 [11]: 12.9 µg/mL | MPI [11]: 100 | IC50 [12]: 0.303 µg/mL | IC80 [12]: 1.59 µg/mL | MPI [12]: 100 | IC50 [13]: 0.437 µg/mL | IC80 [13]: 5.5 µg/mL | MPI [13]: 100 | IC50 [14]: 0.179 µg/mL | IC80 [14]: 0.937 µg/mL | MPI [14]: 100

N49P18.1 (antibody)
IC50 [1]: > 50 µg/mL | IC80 [1]: > 50 µg/mL | MPI [1]: 11 | IC50 [2]: 4.16 µg/mL | IC80 [2]: 19.8 µg/mL | MPI [2]: 98 | IC50 [3]: 2.06 µg/mL | IC80 [3]: 11.4 µg/mL | MPI [3]: 100 | IC50 [4]: 17.3 µg/mL | IC80 [4]: > 50 µg/mL | MPI [4]: 79 | IC50 [5]: 46.4 µg/mL | IC80 [5]: > 50 µg/mL | MPI [5]: 52 | IC50 [6]: 4.08 µg/mL | IC80 [6]: 21.8 µg/mL | MPI [6]: 97 | IC50 [7]: 32.5 µg/mL | IC80 [7]: > 50 µg/mL | MPI [7]: 61 | IC50 [8]: 11 µg/mL | IC80 [8]: 37.6 µg/mL | MPI [8]: 87 | IC50 [9]: 8.98 µg/mL | IC80 [9]: 48 µg/mL | MPI [9]: 92 | IC50 [10]: 3.95 µg/mL | IC80 [10]: 21.1 µg/mL | MPI [10]: 96 | IC50 [11]: 5.71 µg/mL | IC80 [11]: 23.1 µg/mL | MPI [11]: 94 | IC50 [12]: 12.5 µg/mL | IC80 [12]: 49.8 µg/mL | MPI [12]: 84 | IC50 [13]: 2.34 µg/mL | IC80 [13]: 9.64 µg/mL | MPI [13]: 99 | IC50 [14]: 4.25 µg/mL | IC80 [14]: 11.7 µg/mL | MPI [14]: 99
